The values that follow come from article doi:10.1101/2024.08.25.607996 (2024).

The target in experiment [1] is T1, CCoV-HuPn-2018 S domain B (receptor-binding domain), residues 523-671, avi- and His-tagged (CCoV-HuPn-2018 (canine coronavirus)).
T1 chain: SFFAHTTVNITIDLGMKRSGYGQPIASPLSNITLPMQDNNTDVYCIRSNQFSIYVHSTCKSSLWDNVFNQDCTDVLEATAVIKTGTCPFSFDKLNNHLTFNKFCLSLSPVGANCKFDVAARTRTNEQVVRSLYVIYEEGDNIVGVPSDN
Description: BLI. Background: Biolayer interferometry detects binding as a change in optical thickness at a sensor tip.

In experiment [2] the target is FCoV-23 S domain B (receptor-binding domain), residues 529-677, avi- and His-tagged (FCoV-23 (feline coronavirus)). The experiment in a line: BLI.

Where “and” joins values, the source holds several entries; their conditions need not be identical. Equal entries are not always repeated.

B1: feline APN-Fc ectodomain (dimeric) (Fc fusion)
chain: DQSKPWNVYRLPKTLIPDSYNVTLRPYLTPNNKGLYVFTGTNIVRFTCKESTNIVIIHSKRLNYTSHQGHMVALSGVGGFHPQPVIVRTELVELTEYLVVHLQEPLVAGRQYEMNSEFQGELADDLAGFYRSEYMENGVKKVLATTHMQATEARKSFPCFDEPAMKATFNITIIHPNNLVALSNMLPRGPSVPFGEDPTWKVTEFETTPIMSTYLLAYIVSEFSYVETRAPSGVLIRIWARPSAINQGHGDYALKVTGPILDFFSQHYDTPYPLNKSDQIALPDFNAGAMENWGLVTYRESALLYDRQSSSSGNQERVVTVIAHELAHQWFGNLVTLEWWNDLWLNEGFASYVEYLGADFAEPTWNLKDLMVLNDVYRVMAVDALASSHPLSTPASEINTPAQISEVFDSISYSKGASVLRMLSNFLTEDLFKMGIASYLHTYKYGNTIYLNLWEHLQQVVDKQPTIKLPDTVSAIMDRWILQMGFPVITVDTQTGTISQQHFLLDPQSVVTRPSQFNYLWIVPISSVRSGSPQAHYWLPGVEKAQNDLFKTTANDWVLLNLNVTGYYLVNYDNENWKKIQTQLQTDLSVIPVINRAQVIHDAFNLASAQKVPVTLALNNTLFLIQETEYMPWQAALSSLSYFKLMFDRSEVYGPMKRYLKKQVTPLFNHFERVTKNWTDHPQTLMDQYSEINAVSTACSYGVPECEKLAATLFAQWKKNPQNNPIHPNLRSTVYCNAIAQGGEEEWNFVWEQFLKAELVNEADKLRGALACSNQVWILNRFLSYTLDPNLIRKQDVTSTLSSISSNVVGQTLVWDFVQSNWKKLFQDYGTGSFSFSNLIQAVTRRFSTEFELQQLEQFKKNNMDTGFGSATRALEQALEKTKANLKWVKENKDVVLRWFTENS
As a reminder, the Kd is a measure of binding affinity in units of concentration. Lower therefore signals tighter binding. As a reminder, the koff is a measure of how fast the partners let go of each other. A lower koff goes with a long-lived complex. Turning to B1, in experiment [1], the Kd worked out at 28 nM. Also, in experiment [2], the Kd turned out to be 10 nM; the koff was 0.0013 s⁻¹ and 0.0014 s⁻¹.

B2: canine APN-Fc ectodomain (dimeric) (Fc fusion)
chain: LAQSKPWNHYRLPKTLIPSSYNVTLRPYLTPNSNGLYTFKGSSTVRFTCKESTSMIIIHSKKLNYTNIQGQRVALRGVGGSQAPAIDRTELVEVTEYLVVHLREPLQVNSQYEMDSKFEGELADDLAGFYRSEYTENGVKKVLATTQMQAADARKSFPCFDEPAMKATFNITLIHPSNLVALSNMLPRGPSVPFTEEPNWNVTEFETTPIMSTYLLAYIVSEFKNVQENTPSNVLIRIWARPSAMDQGHGNYALRVTGPILDFFSRHYDTPYPLNKSDQIALPDFNAGAMENWGLVTYRESALLYDPQSSSIGNKERVVTVIAHELAHQWFGNLVTLEWWNDLWLNEGFASYVEYLGADYAEPTWNLKDLIVLNEVYRVMAVDALASSHPLSSPASEVNTPAQISEVFDSISYSKGASVLRMLSSFLTEDLFKKGVASYLHTFAYQNTIYLDLWNHLQWALGNQTAINLPYTVNAIMDRWILQMGFPVVTVDTTTGTLSQKHFLLDPQSNVTRPSKFNYLWIIPISSVKSGTQQAHYWMPDNAKVQNDLFKTTGDEWVLLNLNVTGYYLVNYDQNNWKKIHTQLQTDLSVIPVINRAQVIHDTFDLASAQIVPVTLALNSTLFLNQETEYMPWEAALSSLSYFKLMFDRSEVYGPMKNYLRKQVTPLFNHFEKITQNWTDHPQTLTEQYNEINAVSTACTYGVPKCKDLVSTLFAEWRKNPQNNPIYPNLRSTVYCNAIAQGGEEEWNFVWEQFRNTSLVNEADKLRSALACSTQVWILNRYLSYTLNPEFIRKQDVISTLSSIASNVIGQSLAWDFIQSNWKKLFEDYGTGSFSFSNLIQAVTRRFSTEFELQQLEQFKANNMDTGFGSGTRALEQALEKTKANIKWVKENKEAVLQWFRENSQ
In experiment [1], B2 had a Kd of 2.6 nM. Further, in experiment [2], binding was characterised by a dissociation constant (Kd) of 1.2 nM; the koff is 0.00019 s⁻¹ and 0.00018 s⁻¹.
